From patent US7553617B1, “Peptide library and screening systems” (Affymax, Inc., priority 1990, dated 2009)
Where no end group is shown, it is not given here.

Tests used:
Monoclonal antibody 3E7 [1] = experiment: solution RIA, displacement of [125I]b-endorphin from mAb 3E7
3E7 antibody = experiment: Solution radioimmunoassay, inhibition of [125I]b-endorphin binding to mAb 3E7; conditions: for IC50: geometric mean, 30 pM [125I]b-endorphin, 20% tracer bound, 18 hr. incubation, 0.25 μg/ml 3E7; for Affinity Relative to YGGFL (SEQ ID NO: 125): relative to YGGFL = 1
Protocol: The peptides were synthesized according to well known protocols, as described in, for example, Merrifield, Science 232:341-347 (1986), incorporated by reference herein. A solution radioimmunoassay was used to estimate the binding affinities of peptides for mAb 3E7. Solution radioimmunoassay using [^125I]b-endorphin (20,000 cpm) and purified 3E7 antibody (0.25 μg/ml) was conducted as described by Meo et al., supra, with the exception that the final volume was 150 μl. Antibody-bound and free [^125I]b-endorphin were separated by addition of activated charcoal followed by centrifugation, as described in Ghazarassian et al., Life Sciences 27:75-86 (1980). Antibody-bound [^125I]b-endorphin in the supernatant was measured in a gamma counter. […] J. Physiol. 235:E97-E102 (1978).

Monoclonal antibody 3E7 [2] = experiment: solution RIA, 30 pM tracer, 18 hr incubation
Monoclonal antibody 3E7 [3] = conditions: Meo et al., Herz et al., Gramsch et al.; cited from earlier work
Monoclonal antibody 3E7 [4] = experiment: binding experiments with mAb 3E7 and [3H]YGGFL, room temperature

Work on GGF (peptide) yielded an Affinity Relative to YGGFL (Monoclonal antibody 3E7 [1]) of less than 7.1e-06.

Molecule YGG (peptide) has an Affinity Relative to YGGFL (Monoclonal antibody 3E7 [1]) of less than 7.1e-06.

With YGPFWS [YGPFWS] the IC50 (3E7 antibody) was 1.9 µM and the “Affinity Relative to YGGFL (SEQ ID NO: 125)” value (3E7 antibody) was 0.0037.

In the case of “[125I-tyr28]b-endorphin (from UniProt P01189 237-267) (peptide)”, the tracer bound (Monoclonal antibody 3E7 [2]) is reported as 20%.

With YAGFAQ [YAGFAQ] the IC50 (3E7 antibody) was 8.3 µM and the “Affinity Relative to YGGFL (SEQ ID NO: 125)” value (3E7 antibody) was 0.00086.

For YGFWGM [YGFWGM], the IC50 (3E7 antibody) was 0.35 µM and the “Affinity Relative to YGGFL (SEQ ID NO: 125)” value (3E7 antibody) was 0.020.

With YGGFPD [YGGFPD] the IC50 (3E7 antibody) was 2.3 µM and the “Affinity Relative to YGGFL (SEQ ID NO: 125)” value (3E7 antibody) was 0.0031.

In the case of “YGGFM: met-enkephalin, natural opioid peptide”, the “binding to antibody 3E7” value (Monoclonal antibody 3E7 [3]) is given as “binds tightly”.

Molecule GFL (peptide) has an Affinity Relative to YGGFL (Monoclonal antibody 3E7 [1]) of less than 7.1e-06.

For “YGGF [Tyr-Gly-Gly-Phe, reference compound]”, the IC50 (3E7 antibody) was 0.19 µM and the “Affinity Relative to YGGFL (SEQ ID NO: 125)” value (3E7 antibody) was 0.037.

In the case of “YGGFL [Tyr-Gly-Gly-Phe-Leu, reference compound]”, the “binding to antibody 3E7” value (Monoclonal antibody 3E7 [3]) is given as “binds tightly”, the IC50 (3E7 antibody) is given as 0.0071 µM and the “Affinity Relative to YGGFL (SEQ ID NO: 125)” value (3E7 antibody) is given as 1.

For YGNWTY [YGNWTY], the IC50 (3E7 antibody) was 7.8 µM and the “Affinity Relative to YGGFL (SEQ ID NO: 125)” value (3E7 antibody) was 0.00091.

For YGGWAG [YGGWAG], the IC50 (3E7 antibody) was 7.8 µM and the “Affinity Relative to YGGFL (SEQ ID NO: 125)” value (3E7 antibody) was 0.00091.

In the case of YGPFWS, the Affinity Relative to YGGFL (Monoclonal antibody 3E7 [1]) is reported as 0.0037 and the IC50 (Monoclonal antibody 3E7 [1]) is reported as 1.9 µM.

Molecule YGGFPD has an Affinity Relative to YGGFL (Monoclonal antibody 3E7 [1]) of 0.0031 and an IC50 (Monoclonal antibody 3E7 [1]) of 2.3 µM.

With YGFWGM the Affinity Relative to YGGFL (Monoclonal antibody 3E7 [1]) was 0.02 and the IC50 (Monoclonal antibody 3E7 [1]) was 0.35 µM.

Work on YGGFL yielded an Affinity Relative to YGGFL (Monoclonal antibody 3E7 [1]) of 1, an IC50 (Monoclonal antibody 3E7 [1]) of 0.0071 µM and a dissociation t1/2 (Monoclonal antibody 3E7 [4]) of 45 s.

With YGNWTY the Affinity Relative to YGGFL (Monoclonal antibody 3E7 [1]) was 0.00091 and the IC50 (Monoclonal antibody 3E7 [1]) was 7.8 µM.

In the case of YAGFAQ, the Affinity Relative to YGGFL (Monoclonal antibody 3E7 [1]) is reported as 0.00086 and the IC50 (Monoclonal antibody 3E7 [1]) is reported as 8.3 µM.

YGGWAG showed an Affinity Relative to YGGFL (Monoclonal antibody 3E7 [1]) of 0.00091 and an IC50 (Monoclonal antibody 3E7 [1]) of 7.8 µM.

Molecule GGFL has an Affinity Relative to YGGFL (Monoclonal antibody 3E7 [1]) of less than 7.1e-06.

Molecule YGGF has an Affinity Relative to YGGFL (Monoclonal antibody 3E7 [1]) of 0.037 and an IC50 (Monoclonal antibody 3E7 [1]) of 0.19 µM.
